Test results as given in patent US20220119531A1 (I MAB BIOPHARMA US, published 2022).

Key:
[1] = molecular target: T1, human PD-L1 expressed on mammalian cells (human, UniProt Q9NZQ7 19-290); test: FACS on PD-L1 Raji cells by the text; the axis unit is printed only as 'ng', no volume
T1 construct: whole, on cells; The cell line (CHOK1 or Raji) is named under assay in each row; also called PDL1-CHOK1 cells; PD-L1 Raji cells
Experimental: Briefly, PD-L1 Raji cells were first incubated with 5-fold serially diluted humanized antibodies starting at 2 μg/ml at RT for 1 hour. After wash by FACS buffer (PBS with 2% FBS), the Alexa 488-anti-human IgG antibody was added to each well and incubated at RT for 1 hour. The MFI of Alexa 488 were evaluated by FACSAriaIII.

PD-L1 N183A clone = molecular target: T2, PD-L1 N183A clone (human, UniProt Q9NZQ7 19-290, limits assumed); test: alanine-scan library, high-throughput flow cytometry; threshold for critical clones
T2 construct: Read by flow cytometry
Description: (§1) An alanine-scan library of PD-L1 was constructed. Briefly, 217 mutant clones of PD-L1 were generated on Integral Molecular's protein engineering platform. […] For each PD-L1 variant, the mean binding value was plotted as a function of expression (control anti-PD-L1 mAb reactivity).

[2] = molecular target: T3, PD-L1 Y134 alanine-scan mutant (human, UniProt Q9NZQ7 19-290, limits assumed); test: as above
T3 construct: Read by flow cytometry
Description: as §1

[3] = molecular target: T4, PD-L1 K162 alanine-scan mutant (human, UniProt Q9NZQ7 19-290, limits assumed); test: as above
T4 construct: Read by flow cytometry
Description: as §1

T1 sequence (Q9NZQ7 19-290): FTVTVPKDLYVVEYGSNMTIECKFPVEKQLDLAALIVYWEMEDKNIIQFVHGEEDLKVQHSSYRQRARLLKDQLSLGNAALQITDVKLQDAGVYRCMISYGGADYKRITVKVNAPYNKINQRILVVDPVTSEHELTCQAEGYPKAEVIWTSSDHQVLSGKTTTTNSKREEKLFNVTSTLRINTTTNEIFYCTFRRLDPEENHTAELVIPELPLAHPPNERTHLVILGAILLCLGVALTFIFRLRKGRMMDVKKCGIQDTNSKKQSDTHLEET
T3 sequence (Q9NZQ7 other isoform, or with tags, fused parts or gaps mutant limits assumed): as the sequence (Q9NZQ7 19-290) above, with Y116A counted along it
T4 sequence (Q9NZQ7 other isoform, or with tags, fused parts or gaps mutant limits assumed): as the sequence (Q9NZQ7 19-290) above, with K144A counted along it
T2 sequence (Q9NZQ7 19-290 N183A limits assumed): as the sequence (Q9NZQ7 19-290) above, with N165A counted along it

| Binder | EC50 (read off the curve) [1] | % WT reactivity (PD-L1 N183A clone) | % WT reactivity [2] | % WT reactivity [3] |
| --- | --- | --- | --- | --- |
| Hu1210-41 (antibody, V domains shown, Humanized; also called Hu1210-41 antibody; parental antibody Hu1210-41) VH: EVQLVESGGGLVQPGGSLRLSCAASGFTFSSYDMSWVRQAPGKSLEWVATISDAGGYIYYSDSVKGRFTISRDNAKNSLYLQMNSLRDEDTAVYICAREFGKRYALDYWGQGTTVTVSS VL: DIQMTQSPSSLSASVGDRVTITCKASQDVTPAVAWYQQKPGKAPKLLIYSTSSRYTGVPSRFSGSGSGTDFTFTISSLQPEDIATYYCQQHYTTPLTFGQGTKLEIK | ~0.5 ng | – | – | – |
| WT (S60R mutant of Hu1210-41) (antibody, V domains shown, Differs from Hu1210-41 by S60R (Kabat) in the heavy chain; Detected with anti-human IgG; also called S6OR (CDRH2) mutant; parental antibody WT) VH: EVQLVESGGGLVQPGGSLRLSCAASGFTFSSYDMSWVRQAPGKSLEWVATISDAGGYIYYRDSVKGRFTISRDNAKNSLYLQMNSLRDEDTAVYICAREFGKRYALDYWGQGTTVTVSS VL: DIQMTQSPSSLSASVGDRVTITCKASQDVTPAVAWYQQKPGKAPKLLIYSTSSRYTGVPSRFSGSGSGTDFTFTISSLQPEDIATYYCQQHYTTPLTFGQGTKLEIK | ~0.4 ng | – | – | – |
| Hu1210-41 Fab (Fab, V domains shown) VH: EVQLVESGGGLVQPGGSLRLSCAASGFTFSSYDMSWVRQAPGKSLEWVATISDAGGYIYYSDSVKGRFTISRDNAKNSLYLQMNSLRDEDTAVYICAREFGKRYALDYWGQGTTVTVSS VL: DIQMTQSPSSLSASVGDRVTITCKASQDVTPAVAWYQQKPGKAPKLLIYSTSSRYTGVPSRFSGSGSGTDFTFTISSLQPEDIATYYCQQHYTTPLTFGQGTKLEIK | – | < 30 % of WT | < 30 % of WT | < 30 % of WT |
